The results in this text go back to article PMC11865472 (2025).

B3: TGF-β2 homodimer (growth factor domain), unlabelled (ligand)
chain: ALDAAYCFRNVQDNCCLRPLYIDFKRDLGWKWIHEPKGYNANFCAGACPYLWSSDTQHSRVLSLYNTINPEASASPCCVSQDLEPLTILYYIGKTPKIEQLSNMIVKSCKCS

In assay [1] the target is T1, TGF-β receptor type II (TGFBR2), extracellular domain (UniProt P37173 23-166). As to the kind of experiment: SPR; 1 µM ratBGO-Y248A.
In assay [2] the target is T1, TGF-β receptor type II (TGFBR2), …. Put plainly: SPR; 1 µM ratBGO-zfBL.
Assay [3] shares this target. As to the kind of experiment: SPR.
The target is the same in assay [4]. As to the kind of experiment: SPR; 1 µM zfBGO.
Assay [5] has the same target. As to the kind of experiment: SPR; 1 µM ratBGO.
Assay [6] deals with T2, biotinylated TGF-β2 homodimer (human, biotin (EZ-Link Amine-PEG3-Biotin coupled with EDC and sulfo-NHS)).
T2 chain: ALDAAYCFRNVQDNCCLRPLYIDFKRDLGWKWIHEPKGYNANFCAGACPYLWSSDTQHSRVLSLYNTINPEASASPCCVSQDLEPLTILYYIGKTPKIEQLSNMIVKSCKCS
As to the kind of experiment: SPR.

The target of assay [7] is B3. As to the kind of experiment: SPR.
In assay [8] the target is T3, inhibin A (InhA), mature heterodimer, unlabelled (UniProt P05111 233-366; P08476 311-426).
T3 chain 1: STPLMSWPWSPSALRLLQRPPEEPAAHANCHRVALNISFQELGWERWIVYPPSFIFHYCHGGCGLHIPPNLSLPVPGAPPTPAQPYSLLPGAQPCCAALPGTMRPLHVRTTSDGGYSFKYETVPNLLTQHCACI
T3 chain 2: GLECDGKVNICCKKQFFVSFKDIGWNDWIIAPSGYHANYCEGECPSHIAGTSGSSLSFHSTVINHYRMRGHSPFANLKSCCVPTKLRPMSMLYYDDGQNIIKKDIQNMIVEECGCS
Put plainly: SPR.

B1: TGF-β2 on the chip with ratBGO-Y248A bound (1 µM ratBGO-Y248A in the buffer) (complex)
chain 1: ALDAAYCFRNVQDNCCLRPLYIDFKRDLGWKWIHEPKGYNANFCAGACPYLWSSDTQHSRVLSLYNTINPEASASPCCVSQDLEPLTILYYIGKTPKIEQLSNMIVKSCKCS
chain 2: GSPCELSPINASHPVQALMESFTVLSGCASRGTTGLPREVHVLNLRSTDQGPGQRQREVTLHLNPIASVHTHHKPIVFLLNSPQPLVWHLKTERLAAGVPRLFLVSEGSVVQFPSGNFSLTAETEERNFPQENEHLLRWAQKEYGAVTSFTELKIARNIYIKVGEDQVFPPTCNIGKNFLSLNYLAEYLQPKAAEGCVLPSQPHEKEVHIIELITPSSNPASAFQVDIIVDIRPAQEDPEVVKNLVLILKCKKSVNWVIKSFDVKGNLKVIAPNSIGFGKESERSMTMTKLVRDDIPSTQENLMKWALDNGYRPVTSYTMAPVANRFHLRLENHHHHHH
Consider B1, for which the Kd in assay [1] was over 10000 nM.

B2: TGF-β2 on the chip with ratBGO-zfBL bound (1 µM ratBGO-zfBL in the buffer) (complex)
chain 1: ALDAAYCFRNVQDNCCLRPLYIDFKRDLGWKWIHEPKGYNANFCAGACPYLWSSDTQHSRVLSLYNTINPEASASPCCVSQDLEPLTILYYIGKTPKIEQLSNMIVKSCKCS
chain 2: GSPCELSPINASHPVQALMESFTVLSGCASRGTTGLPREVHVLNLRSTDQGPGQRQREVTLHLNPIASVHTHHKPIVFLLNSPQPLVWHLKTERLAAGVPRLFLVSEGSVVQFPSGNFSLTAETEERNFPQENEHLLRWAQKEYGAVTSFTELKIARNIYIKVGEDQVFPPTCNIGKNFLSLNYLAEYLQPKAAEGCVLPSQPHEKEVHIIELITPNSSSAFQVDIIVDIRPAQEDPEVVKNLVLILKCKKSVNWVIKSFDVKGNLKVIAPNSIGFGKESERSMTMTKLVRDDIPSTQENLMKWALDNGYRPVTSYTMAPVANRFHLRLENHHHHHH
Regarding B2, the Kd in assay [2] was over 10000 nM.
In assay [3], B3 displayed a Kd of over 10000 nM.

B4: TGF-β2 on the chip with zfBGO bound (1 µM zfBGO in the buffer) (complex)
chain 1: ALDAAYCFRNVQDNCCLRPLYIDFKRDLGWKWIHEPKGYNANFCAGACPYLWSSDTQHSRVLSLYNTINPEASASPCCVSQDLEPLTILYYIGKTPKIEQLSNMIVKSCKCS
chain 2: GSPCELLPVGVGHPVQAMLKSFTALSGCASRGTTSHPQEVHIINLRKGSAQGAREKTAEVALHLRPIQSLHVHQKPLVFILNSPQPILWKVRTEKLAPGVKRIFHVVEGSEVHFEVGNFSKSGEVKVETLPHGNEHLLNWAHHRYTAVTSFSELRMAHDIYIKVGEDPVFSETCKIDNKFLSLNYLASYIEPQPSTGCVLSGPDHEQEVHIIELQAPNSSSAFQVDVIVDLRPLDGDIPLHRDVVLLLKGEKSVNWVIKAHKVMGKLEIMTSDTVSLSEDTERLMQVSKTVKQKLPAGSQALIQWAEENGFNPVTSYTNTPVANHFNLRLREHHHHHH
For B4, the Kd in assay [4] is over 10000 nM.

B5: TGF-β2 on the chip with ratBGO bound (1 µM ratBGO in the buffer) (complex)
chain 1: ALDAAYCFRNVQDNCCLRPLYIDFKRDLGWKWIHEPKGYNANFCAGACPYLWSSDTQHSRVLSLYNTINPEASASPCCVSQDLEPLTILYYIGKTPKIEQLSNMIVKSCKCS
chain 2: GSPCELSPINASHPVQALMESFTVLSGCASRGTTGLPREVHVLNLRSTDQGPGQRQREVTLHLNPIASVHTHHKPIVFLLNSPQPLVWHLKTERLAAGVPRLFLVSEGSVVQFPSGNFSLTAETEERNFPQENEHLLRWAQKEYGAVTSFTELKIARNIYIKVGEDQVFPPTCNIGKNFLSLNYLAEYLQPKAAEGCVLPSQPHEKEVHIIELITPSSNPYSAFQVDIIVDIRPAQEDPEVVKNLVLILKCKKSVNWVIKSFDVKGNLKVIAPNSIGFGKESERSMTMTKLVRDDIPSTQENLMKWALDNGYRPVTSYTMAPVANRFHLRLENHHHHHH
Turning to B5, in assay [5], the Kd is 1780 nM.

B6: rat betaglycan ZP-C domain (BG_(ZP-C)), mammalian-expressed (domain or fragment)
chain: GNATFNMELYNTDLFLVPSPGVFSVAENEHVYVEVSVTKADQDLGFAIQTCFLSPYSNPDRMSDYTIIENICPKDDSVKFYSSKRVHFPIPHAEVDKKRFSFLFKSVFNTSLLFLHCELTLCSRKKGSLKLPRCVTPDDACTSLDATMIWTMMQNKKTFTKPLAVVLQ
As for B6, the Kd in assay [6] is 159 nM; in assay [7], 127 nM; in assay [8], 1070 nM.

B7: BGZP-C E130A (protein)
chain: GNATFNMELYNTDLFLVPSPGVFSVAENEHVYVEVSVTKADQDLGFAIQTCFLSPYSNPDRMSDYTIIENICPKDDSVKFYSSKRVHFPIPHAEVDKKRFSFLFKSVFNTSLLFLHCALTLCSRKKGSLKLPRCVTPDDACTSLDATMIWTMMQNKKTFTKPLAVVLQ
Turning to B7, the Kd in assay [6] turned out to be 1350 nM.

B8: BGZP-C S155A (protein)
chain: GNATFNMELYNTDLFLVPSPGVFSVAENEHVYVEVSVTKADQDLGFAIQTCFLSPYSNPDRMSDYTIIENICPKDDSVKFYSSKRVHFPIPHAEVDKKRFSFLFKSVFNTSLLFLHCELTLCSRKKGSLKLPRCVTPDDACTALDATMIWTMMQNKKTFTKPLAVVLQ
B8: the Kd in assay [6] was determined as 282 nM.
